The record followed here is the supplement of paper PMC9112550, “Optimization of the antimicrobial peptide Bac7 by deep mutational scanning” (BMC Biology, 2022).

In this data set the test system is Escherichia coli TOP10. Kind of data set: shrunken log2 fold change of peptide-encoding DNA abundance (4.5 h post-induction vs induction); higher = less antimicrobial activity (less host growth inhibition). The following applies: time post-induction: 4.5 h; library: site-saturation at positions 5, 18, 19, 20.
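Further: peptides expressed intracellularly from a pBAD plasmid library in pooled LB shake-flask culture, induced with 0.3% L-arabinose, DNA abundance read by NGS, three biological replicates, DESeq2 with apeglm shrinkage.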

Take RRIRVRPPRLPRPRPRPADPPRP: the “shrunken log2 fold change” value came to 0.0239.
As for RRIRLRPPRLPRPRPRPKCNPRP, the “shrunken log2 fold change” value was -0.647.
For RRIRGRPPRLPRPRPRPFATPRP, the “shrunken log2 fold change” value is 2.68.
As to RRIRDRPPRLPRPRPRPTFSPRP, the “shrunken log2 fold change” value amounted to 0.743.
RRIRARPPRLPRPRPRPHDPPRP: the “shrunken log2 fold change” value came to 0.402.
In the case of RRIRYRPPRLPRPRPRPAFSPRP it was 0.0115.
Consider RRIRTRPPRLPRPRPRPTWRPRP, for which the “shrunken log2 fold change” value came to 0.233.
As for RRIRERPPRLPRPRPRPCFAPRP, the “shrunken log2 fold change” value amounted to 0.0529.
With RRIRQRPPRLPRPRPRPLDNPRP, the “shrunken log2 fold change” value was -0.151.
The same measure for RRIRARPPRLPRPRPRPFEMPRP: 0.135; for RRIRPRPPRLPRPRPRPHFWPRP: 0.482; for RRIRLRPPRLPRPRPRPTMAPRP: -0.283.
Turning to RRIRNRPPRLPRPRPRPVPSPRP, the “shrunken log2 fold change” value amounted to 0.155.
The same measure for RRIRIRPPRLPRPRPRPSSFPRP: -0.711; for RRIRERPPRLPRPRPRPQCRPRP: -0.401.
Turning to RRIRFRPPRLPRPRPRPRKAPRP, the “shrunken log2 fold change” value amounted to 0.182.
The same measure for RRIRDRPPRLPRPRPRPSVTPRP: 0.0709; for RRIRRRPPRLPRPRPRPKDFPRP: -0.123.
The same measure for RRIRRRPPRLPRPRPRPRNYPRP: 0.143.
RRIRQRPPRLPRPRPRPRSPPRP: the “shrunken log2 fold change” value was determined as 0.0984.
In the case of RRIRPRPPRLPRPRPRPDHDPRP it was -0.306; in that of RRIRGRPPRLPRPRPRPFFWPRP, 0.499.
The same measure for RRIRWRPPRLPRPRPRPTGLPRP: 0.0239.
Consider RRIRQRPPRLPRPRPRPMIYPRP, for which the “shrunken log2 fold change” value is -0.0652.
For RRIRQRPPRLPRPRPRPFCWPRP, the “shrunken log2 fold change” value turned out to be 0.42.
With RRIRMRPPRLPRPRPRPSTVPRP, the “shrunken log2 fold change” value is -0.0552.
The same measure for RRIRCRPPRLPRPRPRPPIVPRP: -0.089; for RRIRYRPPRLPRPRPRPHRRPRP: -0.0466; for RRIRPRPPRLPRPRPRPSSSPRP: -0.134.
In the case of RRIRHRPPRLPRPRPRPCYVPRP it was -1.53; in that of RRIRARPPRLPRPRPRPGLTPRP, 0.686; in that of RRIRYRPPRLPRPRPRPKHGPRP, -0.413.
The same measure for RRIRERPPRLPRPRPRPSEEPRP: -0.0988.
Regarding RRIRCRPPRLPRPRPRPRIHPRP, the “shrunken log2 fold change” value is -0.226.
Regarding RRIRWRPPRLPRPRPRPEFCPRP, the “shrunken log2 fold change” value turned out to be 0.335.
The same measure for RRIRMRPPRLPRPRPRPCQPPRP: -0.0351.
The same measure for RRIRRRPPRLPRPRPRPTYDPRP: 0.0415.
For the sequence RRIRHRPPRLPRPRPRPRGTPRP, the “shrunken log2 fold change” value is -0.164.
The same measure for RRIRPRPPRLPRPRPRPVHEPRP: 0.497; for RRIRERPPRLPRPRPRPLDWPRP: -0.0749; for RRIRPRPPRLPRPRPRPLRLPRP: 0.2.
For RRIRARPPRLPRPRPRPQHAPRP, the “shrunken log2 fold change” value was 0.269.
In the case of RRIRARPPRLPRPRPRPQYMPRP it was -0.112.
The same measure for RRIRMRPPRLPRPRPRPMITPRP: -0.0461; for RRIRSRPPRLPRPRPRPLNRPRP: -0.246; for RRIRKRPPRLPRPRPRPWNEPRP: -0.0249.
As for RRIRIRPPRLPRPRPRPQLSPRP, the “shrunken log2 fold change” value was -0.565.
RRIRPRPPRLPRPRPRPLVSPRP: the “shrunken log2 fold change” value came to 0.00371.
In the case of RRIRVRPPRLPRPRPRPLVRPRP it was 0.0251; in that of RRIRDRPPRLPRPRPRPQWIPRP, -0.222.
The same measure for RRIRPRPPRLPRPRPRPDKKPRP: -0.429.
In the case of RRIRWRPPRLPRPRPRPLLHPRP it was 0.493; in that of RRIRIRPPRLPRPRPRPPDVPRP, -0.109.
Take RRIRNRPPRLPRPRPRPDDRPRP: the “shrunken log2 fold change” value was determined as 0.0384.
In the case of RRIRHRPPRLPRPRPRPWNPPRP it was -0.221; in that of RRIRERPPRLPRPRPRPSMLPRP, -0.938; in that of RRIRHRPPRLPRPRPRPFMDPRP, -0.436.
In the case of RRIRCRPPRLPRPRPRPFGNPRP it was -0.365; in that of RRIRLRPPRLPRPRPRPHNIPRP, -0.049; in that of RRIRRRPPRLPRPRPRPSYCPRP, -0.0727.
The same measure for RRIRVRPPRLPRPRPRPEVVPRP: -0.0305; for RRIRVRPPRLPRPRPRPFWWPRP: 0.343.
For RRIRFRPPRLPRPRPRPELQPRP, the “shrunken log2 fold change” value is 0.348.
On to RRIRVRPPRLPRPRPRPRVSPRP, for which the “shrunken log2 fold change” value is 0.205.
The same measure for RRIRKRPPRLPRPRPRPNNIPRP: -0.477.
On to RRIRPRPPRLPRPRPRPHSEPRP, for which the “shrunken log2 fold change” value was -0.0259.
In the case of RRIRFRPPRLPRPRPRPNQNPRP it was -0.443; in that of RRIRYRPPRLPRPRPRPCIYPRP, -0.207.
For the sequence RRIRYRPPRLPRPRPRPGFNPRP, the “shrunken log2 fold change” value was -0.46.
The same measure for RRIRKRPPRLPRPRPRPNIRPRP: -0.0456.
The same measure for RRIRMRPPRLPRPRPRPGFFPRP: 0.423.
Regarding RRIRERPPRLPRPRPRPYINPRP, the “shrunken log2 fold change” value was -0.248.
The same measure for RRIRVRPPRLPRPRPRPKVHPRP: -0.192.
In the case of RRIRARPPRLPRPRPRPDELPRP it was 0.63; in that of RRIRVRPPRLPRPRPRPNRQPRP, -0.326.
The same measure for RRIRFRPPRLPRPRPRPWNDPRP: -0.243; for RRIRQRPPRLPRPRPRPGEQPRP: 0.201.
As to RRIRTRPPRLPRPRPRPDDWPRP, the “shrunken log2 fold change” value was 0.276.
In the case of RRIRSRPPRLPRPRPRPDKRPRP, the “shrunken log2 fold change” value is -0.198.
In the case of RRIRSRPPRLPRPRPRPSWSPRP it was -0.0102; in that of RRIRCRPPRLPRPRPRPDGSPRP, -0.133.
The same measure for RRIRSRPPRLPRPRPRPAMPPRP: 0.206; for RRIRFRPPRLPRPRPRPISGPRP: 0.00212; for RRIRVRPPRLPRPRPRPWWLPRP: -0.0366.
The same measure for RRIRFRPPRLPRPRPRPWESPRP: -0.037; for RRIRTRPPRLPRPRPRPRIAPRP: 0.102; for RRIRPRPPRLPRPRPRPVARPRP: 0.245.
In the case of RRIRLRPPRLPRPRPRPSHCPRP, the “shrunken log2 fold change” value is -0.117.
In the case of RRIRTRPPRLPRPRPRPQNDPRP it was -0.749; in that of RRIRYRPPRLPRPRPRPTWCPRP, -0.544; in that of RRIRDRPPRLPRPRPRPFDYPRP, -0.224.
Take RRIRKRPPRLPRPRPRPRKRPRP: the “shrunken log2 fold change” value was determined as 1.04.
In the case of RRIRKRPPRLPRPRPRPLQIPRP it was 0.0389; in that of RRIRKRPPRLPRPRPRPDIMPRP, 1.57.
In the case of RRIRRRPPRLPRPRPRPFRHPRP it was -0.212.
With RRIRCRPPRLPRPRPRPLALPRP, the “shrunken log2 fold change” value was -0.621.
Turning to RRIRYRPPRLPRPRPRPTYQPRP, the “shrunken log2 fold change” value is -0.00459.
Consider RRIRMRPPRLPRPRPRPAQSPRP, for which the “shrunken log2 fold change” value was determined as 2.88.
Regarding RRIRLRPPRLPRPRPRPHWPPRP, the “shrunken log2 fold change” value is 0.00985.
In the case of RRIRPRPPRLPRPRPRPISGPRP it was -0.154; in that of RRIRERPPRLPRPRPRPSDWPRP, 0.0574.
The same measure for RRIRHRPPRLPRPRPRPCITPRP: -0.472; for RRIRLRPPRLPRPRPRPQTWPRP: 0.0171; for RRIRRRPPRLPRPRPRPGYQPRP: 0.0538.
As to RRIRERPPRLPRPRPRPIEYPRP, the “shrunken log2 fold change” value is -0.207.
Consider RRIRLRPPRLPRPRPRPFSDPRP, for which the “shrunken log2 fold change” value turned out to be 0.0391.
In the case of RRIRRRPPRLPRPRPRPHEYPRP, the “shrunken log2 fold change” value is -0.0758.
In the case of RRIRYRPPRLPRPRPRPKKWPRP, the “shrunken log2 fold change” value is -0.113.
For RRIRIRPPRLPRPRPRPQQIPRP, the “shrunken log2 fold change” value was -0.552.
Take RRIRWRPPRLPRPRPRPPMVPRP: the “shrunken log2 fold change” value amounted to 0.104.
For the sequence RRIRFRPPRLPRPRPRPVLQPRP, the “shrunken log2 fold change” value stood at 0.21.
In the case of RRIRPRPPRLPRPRPRPWYFPRP it was -1.02.
The same measure for RRIRMRPPRLPRPRPRPFKVPRP: -0.111; for RRIRWRPPRLPRPRPRPPTTPRP: 0.277.
RRIRSRPPRLPRPRPRPEMFPRP: the “shrunken log2 fold change” value is -0.0055.
The same measure for RRIRMRPPRLPRPRPRPTGMPRP: 0.136; for RRIRMRPPRLPRPRPRPVTWPRP: 0.216.
On to RRIRLRPPRLPRPRPRPKGVPRP, for which the “shrunken log2 fold change” value came to 0.0368.
The same measure for RRIRVRPPRLPRPRPRPHQRPRP: -0.124.
On to RRIRKRPPRLPRPRPRPLERPRP, for which the “shrunken log2 fold change” value amounted to 0.529.
Regarding RRIRVRPPRLPRPRPRPVSLPRP, the “shrunken log2 fold change” value was 0.106.
The same measure for RRIRPRPPRLPRPRPRPPRYPRP: 0.237; for RRIRRRPPRLPRPRPRPCLIPRP: -0.38.
As for RRIRCRPPRLPRPRPRPGCEPRP, the “shrunken log2 fold change” value turned out to be 0.159.
In the case of RRIRLRPPRLPRPRPRPLFRPRP it was -0.388.
